This experiment has as its target T1, ACE2 tested for a complex with GMI by immunoprecipitation (human, UniProt Q9BYF1 18-805).
T1 construct: also called hACE2; angiotensin converting enzyme 2
Description: immunoprecipitation.

T1 sequence (Q9BYF1 18-805 limits assumed, one chain of several): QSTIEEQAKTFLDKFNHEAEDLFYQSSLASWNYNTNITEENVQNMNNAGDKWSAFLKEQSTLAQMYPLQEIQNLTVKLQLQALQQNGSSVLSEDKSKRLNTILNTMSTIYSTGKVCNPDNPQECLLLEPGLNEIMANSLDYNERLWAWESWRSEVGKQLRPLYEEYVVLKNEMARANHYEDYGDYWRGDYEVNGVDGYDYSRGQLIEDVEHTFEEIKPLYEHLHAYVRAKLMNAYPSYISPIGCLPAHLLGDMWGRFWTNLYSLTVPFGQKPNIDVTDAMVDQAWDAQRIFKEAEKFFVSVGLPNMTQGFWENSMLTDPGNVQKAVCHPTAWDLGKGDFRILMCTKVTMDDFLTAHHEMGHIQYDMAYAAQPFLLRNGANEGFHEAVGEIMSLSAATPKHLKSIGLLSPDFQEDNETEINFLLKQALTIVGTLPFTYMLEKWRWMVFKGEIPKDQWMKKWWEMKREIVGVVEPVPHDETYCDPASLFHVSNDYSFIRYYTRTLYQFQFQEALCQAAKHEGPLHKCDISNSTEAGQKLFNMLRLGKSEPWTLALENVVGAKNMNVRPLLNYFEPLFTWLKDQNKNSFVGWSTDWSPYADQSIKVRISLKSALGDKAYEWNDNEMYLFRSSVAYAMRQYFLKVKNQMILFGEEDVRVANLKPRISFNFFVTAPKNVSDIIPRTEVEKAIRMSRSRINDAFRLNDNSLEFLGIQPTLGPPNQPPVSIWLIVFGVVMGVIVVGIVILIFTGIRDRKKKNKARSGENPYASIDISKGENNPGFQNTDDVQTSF

B1: Ganoderma immunomodulatory protein (GMI) from Ganoderma microsporum (other)
chain: MSDTALIFTLAWNVKQLAFDYTPNWGRGRPSSFIDTVTFPTVLTDKAYTYRVVVSGKDLGVRPSYAVESDGSQKINFLEYNSGYGIADTNTIQVYVIDPDTGNNFIVAQWN
notes: also called His tagged-GMI; fungal immunomodulatory protein (FIP)
On to B1, for which the binding result was “no binding”.
